± gives the uncertainty stated by the source.
Assay: protein stability index of a GFP-peptide fusion (yeast GPS) (PSI 1-4); higher = more stable; sorted into four equal gates, so the index is relative within each strain
Procedure, shortened: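 Mid-log yeast cultures in leucine-free medium, carrying a pooled plasmid library, were sorted into four equal gates by their GFP/Cherry fluorescence ratio. Each plasmid expressed Cherry along with GFP fused upstream of a tiled 17-residue yeast protein peptide. Plasmids recovered from each gate were PCR-amplified and Illumina-sequenced, with reads assigned to strains by barcodes. The protein stability index was obtained by summing each gate's read frequency weighted by its gate number.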

Sequence	protein stability index (doa10∆)	protein stability index (pdr5∆)	protein stability index (ubr1∆)	protein stability index (san1∆)
ELLDQVTLGREGQIIQR [CDC53]	3.07 ± 0.14	3.73 ± 0.18	3.21 ± 0.19	–
PVSTASYRLLPQINILQ [RPC40]	1.61 ± 0.053	1.66 ± 0.05	1.97 ± 0.051	1.63 ± 0.07
NMLLDPAANESEVANNG [RRP42]	2.05 ± 0.082	2.74 ± 0.059	2.34 ± 0.042	2.64 ± 0.083
STTFADCPVVPADPDIL [RPC40]	2.8 ± 0.071	2.87 ± 0.084	2.43 ± 0.094	2.41 ± 0.11
MRILPRETDPLVYNMTS [RPT4]	3.07 ± 0.078	2.85 ± 0.065	2.73 ± 0.057	3.18 ± 0.06
KPENKTDKVSLSQPVSA [SIR4]	2.81 ± 0.055	2.68 ± 0.052	2.14 ± 0.037	2.49 ± 0.063
NISNAKLANFFSKKGNE [YAR002W/NUP60]	2.83 ± 0.092	3.05 ± 0.062	2.33 ± 0.079	2.88 ± 0.07
LGSGSNVDVCVMEIGKD [PUP1]	3.59 ± 0.089	3.53 ± 0.087	3.51 ± 0.091	3.4 ± 0.06
SSTGNANTSNNLFGATA [YJL041W/NSP1]	3.44 ± 0.084	3.31 ± 0.049	3.29 ± 0.056	3.3 ± 0.051
NISISTSELGNDDFSEV [BRR2]	2.94 ± 0.12	3.19 ± 0.096	3.12 ± 0.077	2.46 ± 0.078
SYDRTLLIADSRRPEPK [RPS16A]	2.25 ± 0.043	2.48 ± 0.068	2.29 ± 0.058	2.03 ± 0.075
QFELLSRRWRQRKNIQS [BRR2]	1.44 ± 0.08	1.92 ± 0.056	1.65 ± 0.044	1.55 ± 0.088
DMLEHINLAMNESSLAL [SRB4]	1.49 ± 0.094	1.28 ± 0.11	1.52 ± 0.092	1.25 ± 0.15
HDEKTLAPSKHQPITSE [SIR4]	2.08 ± 0.088	2.27 ± 0.1	2.27 ± 0.22	2.33 ± 0.12
YFLHLSVFNAELLKLLN [YCS4]	1.26 ± 0.053	1.61 ± 0.058	1.51 ± 0.053	1.8 ± 0.099
YVGEVIKIVSDKKVLVK [RPT6]	3.03 ± 0.058	2.9 ± 0.055	2.94 ± 0.073	3.08 ± 0.067
RNAALRAKAEAAEFRYK [SCL1]	2.9 ± 0.068	3.28 ± 0.072	3 ± 0.057	2.93 ± 0.056
GLFDSFTNGVLAVTNLL [YML031W/NDC1]	2.64 ± 0.14	2.95 ± 0.22	–	2.75 ± 0.11
LQYLDKHIKNLEDDSLL [RPN12]	3.44 ± 0.068	3.42 ± 0.081	3.3 ± 0.049	3.35 ± 0.063
ILNSYGVLKPDITFFGE [SIR2]	3.27 ± 0.069	3.13 ± 0.072	3.31 ± 0.062	3.21 ± 0.049
QAPSELELQVAKTFIDL [RPS7B]	3.06 ± 0.054	3.13 ± 0.04	2.99 ± 0.046	2.89 ± 0.072
TKVLQFAAKQRQELQMQ [SNF2]	2.3 ± 0.12	2.71 ± 0.076	2.31 ± 0.083	2.51 ± 0.059

Sequence	protein stability index (doa10∆)	protein stability index (pdr5∆)	protein stability index (ubr1∆)	protein stability index (san1∆)
HRCAIRSGALIKFKKCD [SSN2]	2.28 ± 0.096	2.26 ± 0.1	2.49 ± 0.11	2.77 ± 0.054
SSWQIYSDENDPSISNN [RRP4]	2.48 ± 0.12	3.16 ± 0.11	3.33 ± 0.14	3.06 ± 0.072
LGVKNLGLCCLLDVKLA [YCG1]	1.54 ± 0.05	1.58 ± 0.045	1.81 ± 0.038	1.82 ± 0.063
IINKLIHIQSKENYPWE [POP3]	2.65 ± 0.067	2.44 ± 0.047	2.41 ± 0.045	1.81 ± 0.068
SFQKKSNDKVVEWINPS [ISW2]	3.12 ± 0.069	3.39 ± 0.072	3.19 ± 0.088	3.1 ± 0.12
SKYGMLLLRCDDRVDKK [POP3]	3.34 ± 0.14	3.35 ± 0.087	3.09 ± 0.077	3.03 ± 0.076
SLPEELKKRYDLSYNFN [YMR129W/POM152]	2.84 ± 0.1	2.67 ± 0.094	2.94 ± 0.091	2.9 ± 0.08
MSNQALYEKLEQTRTIL [SRB6]	3.11 ± 0.3	–	–	–
MSQAVNAKKRVFKTHSY [RPS15]	2.57 ± 0.055	1.72 ± 0.035	2.63 ± 0.061	2.19 ± 0.11
LGWDLDAIIPFAAIPEQ [FAS2]	2.6 ± 0.28	3.14 ± 0.15	3.15 ± 0.16	–
VDIYSLPLISTDVLEIS [YMR129W/POM152]	2.06 ± 0.052	2.58 ± 0.049	2.44 ± 0.044	2.43 ± 0.045
SNGSGIVAAGGGSGAAT [CSL4]	3.53 ± 0.12	3.53 ± 0.18	3.48 ± 0.11	3.45 ± 0.11
LKEQELVLYDAENDVIE [BRR2]	3.24 ± 0.16	2.9 ± 0.16	2.74 ± 0.11	2.99 ± 0.11
EWDLYPQGFSSVERGRK [REC8]	3.41 ± 0.13	3.54 ± 0.14	3.48 ± 0.12	3.44 ± 0.086
RKSKLNLDNLQKVSQLE [POP4]	2.89 ± 0.2	–	–	–
SLQSCSVAVHFQYVIDE [SMC4]	1.82 ± 0.082	1.3 ± 0.039	1.54 ± 0.048	1.47 ± 0.084
NATLQALYRVNDLRDMI [UBP6]	2.74 ± 0.096	2.95 ± 0.093	3.05 ± 0.075	3.03 ± 0.062
NSNGIAMASLYLTGGQQ [SMD1]	2.44 ± 0.073	2.66 ± 0.06	2.59 ± 0.059	2.63 ± 0.063
KNEKLILEESLNAIILK [SMC3]	2.74 ± 0.075	2.64 ± 0.087	2.65 ± 0.064	2.18 ± 0.17
KLNVVGWFHSHPGYDCW [RRI1]	2.59 ± 0.095	2.38 ± 0.099	2.38 ± 0.064	2.61 ± 0.13
LIPASDLSWSKQTDTGI [PRP8]	2.32 ± 0.089	2.68 ± 0.063	2.38 ± 0.044	2.79 ± 0.065
TIFSPEGRLYQVEYALE [PRE9]	3.13 ± 0.079	3.32 ± 0.088	3.12 ± 0.051	3.14 ± 0.11
